experiment: soluble on expression in E. coli; label from the status in PepcDB or PDB records

| Sequence | soluble on expression in E. coli |
| --- | --- |
| MSLHQILVVDDDAVSQQFLVMVLQRLGYANVVVASDGLDALIQLDAGDRRFDVIFCDLDMPRMDGIEFVRHLGERAFQGKLLISSGFDERVLESVAELARMYDLWLAGVLPKPINHQALQRLINQAPPASRHPTHAVAPPTEDELRAAIGKGEIRPFLQPQVLLADGRIRSAEVLARWQHPRLGLIGPQQFIQLAEHSSLITELTLQLLKQAAASMDRLPSETPMEMSLNLSVASLNEIALVSQFERILNDCGFPFSRLTVEVTETGLMANPTRALELLTRLRLKGARLAIDDFGTGFASMDRLSRIPFTELKIDKSFVIDAARNPTNLSIVRASAELGRQLGLVVVAEGVATESEWRLCQQLDVEIVQGSFISPPVDAESFRRWLLKHRGEGHHHHHH | soluble |
| MSLHRLASLPGGWTPAMEGVIIVEQTPAPLIFLTAADTDIQAIARVWPRLPGDFPDLRVCNLLNLQQSFSLDDYGDRVLGQAEVIVVRLLGGKSYWPYGLEVLGELTVTKPDLKLFVLPGDDRPDPSLMNQSTVPLTAVHCLWQYFAEGGTDNIRHGLMWLGDYGFGRNYRPPAPQMVPKVGIYRPEGHHHHHH | soluble |
| MSLHTSHVIPAPRIDVWEWHTRPGAVFRLTPPFLPLRPLEQATSLAKGTTVFALPAGLRWEARHDLSGYIQHHRFTDVCINAPVKSLASWRHIHDFTDHPSGTLITDTVHTRAPRTTLSPAFAYRQHQLINDIQAQQRFYELTRSNPTESTPLTIGLTGSRGLVGRALTAQLTTLGHTVVQLVRGESKPHQRHWDPAHPAPNLLEGLDALIHLAGEPILGRFNDAHKADIRDSRIEPTRQLSQLVQKSSTCRTMVSASAIGYYGHARGDEILDEGSTQGDDFLASVCEEWEAASRTDATSNKRIVNIRTGVVMSGRGGMLPVLKAVFSVGLGGPFRGSNPWMSWIAIDDLCDIYIRAVLDPKLSGAINAVAPNPIKNQDFVDALAKELKRPAKMTISSLGPAILLGQQGAKELALADQRVQPRVLNNLDHHFRYVDIRSCLAHELGGENLLDI | not soluble |
| MSLIDAEHIEIALDKRYLRESYLPERALDDILDGQVIIETQGEQVGQVNGLTVIEVTGHPMPYGEPARISCVIHFGDGDIADVERKVELGGNLHAKGMMIMQAFVSSALNLDGSLPFSASIVFEQSYSEVDGDSASLAELCSLVSALSEYPIDQQIAVTGAVDQFGRVQAVGGLNEKIEGFYRVCCHQGLTGEQGVILPSSNLKHLALHKSVVESIKNGEFNIWPVSTVDEAIPLLMGKPFRGEDEDSVIAKIAERIDNFEKLVEGHHHHHH | soluble |
| MSLIDWTRPLADRMRPRLLTEFVGQSHLLDAGKPLREVIEAGRPHSMVFWGPPGTGKTTLARLIAEATEAEFLALSAVMAGVKEIRQASATGQANRARGRQTILFVDEVHRFNKAQQDAFLPFIEDGTVVFIGATTENPSFELNNALLSRLRTYVLRPLGEAALARIIDCALEDSERGLGTKQLALSEQARSLLIQAADGDARSALSLLEVAADLSAAEARIDIDLIRAAAAGGRARFDKRGEAFYDEISALHKAVRGSAPDAALYWLCRMLAGGCDPLYLARRLLRMASEDIGNADPRGLQVALNAWQAQERLGSPEGELAIAQAVVYLASVPKSDAVYRAYRLAAEDVRSHGSLEVPLALRNAPTRLLRELGYGRGYRYAHDEPEGYAAGAEYFPAELIGTRYYHPADRGLERQIGERLRRLRELDRATEGHHHHHH | not soluble |
| MSLIHAFIKKGCFQDSVSLMIISRKLSESENVDDVSVMMGTPANKALLDTTGFWHDDFNNATPNDICVAIRSEAADAGIAQAIMQQLEEALKQLAQGSGSSQALTQVRRWDSACQKLPDANLALISVAGEYAAELANQALDRNLNVMMFSDNVTLEDEIQLKTRAREKGLLVMGPDCGTSMIAGTPLAFANVMPEGNIGVIGASGTGIQELCSQIALAGEGITHAIGLGGRDLSREVGGISALTALEMLSADEKSEVLAFVSKPPAEAVRLKIVNAMKATGKPTVALFLGYTPAVARDENVWFASSLDEAARLACLLSRVTARRNAIAPVSSGFICGLYTGGTLAAEAAGLLAGHLGVEADDTHQHGMMLDADSHQIIDLGDDFYTVGRPHPMIDPTLRNQLIADLGAKPQVRVLLLDVVIGFGATADPAASLVSAWQKACAARLDNQPLYAIATVTGTERDPQCRSQQIATLEDAGIAVVSSLPEATLLAAALIHPLSPAAQQHTPSLLENVAVINIGLRSFALELQSASKPVVHYQWSPVAGGNKKLARLLERLQEGHHHHHH | soluble |
| MSLIQNVYINGLSGVSAQPTFDESYVDGNVQTETIPYRKVLDPDYKQYLNPTASRRFSRLIKMSLVAAQKSIAMADGVMPEAIITGTGLGCLEDTEKFLKALIENNESMLSPTAFIQSTHNTISGQIAMMITCYYPNYTYSNRYFTFESSLLDAVLMLLDKSCKHVLVNAADEIIPAVHTIVKRMHLWDRAEAIAHKNALAVTAGEGVVSMMLSSEKKESSVAAVKALELIYILPKDTSIEAHFKKFLAEASLTAADIDVLVLGMNGDAASDVYYEPVRNLFSTSTHVVYKHHFGESFTASSFAYWLGAQLIRHKKIDASVILSDKGHRAPKRVLLYNQSHNKYHSFCLLTDVDEGHHHHHH | not soluble |
| MSLIRKFSSKDLDAVEEIEREAFKTPYPTSLILGFWSMYPNCFYVAEIDGRVVGYILGSMDWGNGHIISLAVKKECRGLGIGTALLKTLENYYFNIANCNYIVLEVRVSNVLARRFYYRMGYRDRKLLPKYYEDGEDAILMIKKKPNAKGPLIITLWEGHHHHHH | soluble |
| MSLITVANRIFVNPERAAAFEERFRRRPRRVDRQPGFIADHVLRPTQAGDPYVVLSFWDSRAAFEAWRTSPGFKDGHKEGHHHHHH | not soluble |
| MSLKAFLPLLFSFFFIISCQQHKEATISPIDEEDELQEEADSLPRATAIFWLDKYHMKELKKDDVLTFRTAKAKVVIRNDGTIDLLSFVEQQPGNAQRYIRYRLKDFKVKKILMDNGYINPGEQYVQLRYIPALARRVKEGHHHHHH | soluble |
| MSLKAINFINWKYIGLTGCLVASLLTACGDDETGPEVVTPLEPKLEIVNEASTFSFSSAGNSAQVLTFNANQDWHIVLDDSEGVDNSWVVLFEREGTAGEGNKVWVAAAENVEPDARRANFSLVSGGFKYDFVIYQAQKDAVVITDPKAYENLDAGEHIISVEFGINTGEYKTSFLYSGDTGWIMPTDERPAGEPETRAMENHTLYFKVLPNQKFDIRRGTIEISSKDNDNVKATMNIFQTGLPKPVITVDNKEMFTNLASKEDSILLKYKATNTNGPRDLTIDIDKNDQDWISFKPAIDAKGDSTFLVSVKENTGGERTATIALCAAADKKVREEFIVTQAQASDVELVITNKNDFRTSLDKLGSAATVKYSVQSTLTDPKNEILVDIVYPEESGYTAENGWLHMANNSMPERVIFTYDVNKVLRERQATVYIYRKGYENKKDYMVIRQAAATQIEIPAPGGLTNVLQSLIDDEIYKDWESITSLELKGRLNDTDLNLLKNMMTAGKGYNLKTLDMTEVENETLKNGVFNGCNLLENISFPTGLQYVPREACRNCTKLRTVVVNEGPTYIGRHAFGNSVVNEAWFPSTMTYVYGYIFDNVTALKTLHLKSLPFQCKEVARSDADEGATQPTTWCTVFKTWPSTVYVPMEYLEYYKNPDPKHVVSMHFQDLLNTLTSESEEWTKGPKVQQPYLKSNSALKSNFTWGSSATTIMGESEGHHHHHH | soluble |
| MSLKALHFGAGNIGRGFIGKLLADAGIQLTFADVNQVVLDALNARHSYQVHVVGETEQVDTVSGVNAVSSIGDDVVDLIAQVDLVTTAVGPVVLERIAPAIAKGQVKRKEQGNESPLNIIACENMVRGTTQLKGHVMNALPEDAKAWVEEHVGFVDSAVDRIVPPSASATNDPLEVTVETFSEWIVDKTQFKGALPNIPGMELTDNLMAFVERKLFTLNTGHAITAYLGKLAGHQTIRDAILDEKIRAVVKGAMEESGAVLIKRYGFDADKHAAYIQKILGRFENPYLKDDVERVGRQPLRKLSAGDRLIKPLLGTLEYGLPHKNLIEGIAAAMHFRSEDDPQAQELAALIADKGPQAALAQISGLDANSEVVSEAVTAYKAMQEGGSHHHHHH | soluble |
| MSLKAQRYASVLTLDNLTGRLVVVGDIHGCLAQLQGMLRAVSFKQGSDTLVAVGDLVNKGPDSFGVVRLLKRLGAHSVLGNHDVKLLKLVKKIREKGPLNERDTKSSLAPFALTVPVDVEVYLSQLPHIIRIPAHNVIMTHGGLHPQRPLDCQYIDEVTTLRNLIEKEQKAGGVTLVATPETKDGGVPWASLWRGPETVVFGHDSRRGLQEQYRPLAIGLDSGCVYGGRLSAAVFPGGHIVSVSGWRREAKEGHHHHHH | soluble |
| MSLKATSSDDKVTFHALNGDVKVPKNPKRIAVQNYPDEVASLGANVVGTDSWAFPNTFLSKDQKKNMVDLGAPKFNMEKLIAQNPDLIITVDKDQVADYQKVAPTVLVNYKDLSGMNKSLDYFAKLLNREDEKASFLKNFKKEADKQKEKLAKVDVKPAKNTISLLELQGDKVYAFGDNFARGGQALTTGLGFKESSKMAELSKGVGYAEVNTESLGEFDADYIFIDFADKDKEQYAALKNNPAWQNLKAVKEGHVITMDYDKVYFFGGPTAAKEELSLYTDAIIKATKEGHHHHHH | soluble |
| MSLKAVQQHAFGGPEVLSYEDAPMPVLQAGEVLVQVYAVGVNPPDSYLRDGYQQLPPEWRPEVRFPLILGTDLSGVVVARADDVREVAVGDEVYAMARFPEGAAGGSRAYAEYVSVPVSDLARKPLTLSHQQAAAVPMSLLTAWQFMIDPGHEVANPLQPGPHRPVPLAGKRVLVNGAAGGVGHFAVQLAKWQGAEVIAVAAGCHEAFLRQLGADSVIDYTTTAVEETVRDLDLVIDAPGGPASGRFLRTLRPGGALYPIFPLGFAGAEEARQRGVTVSTTQVRSSGAQLARLADLLDAGVIRVAIDSVFPLAQAQMAHERAAQGHLEGKIVLSVMDSEGHHHHHH | soluble |
| MSLKAWQLENFGLDNLKQVELEKPEIAEDQILIKVNSVSLNYRDTAIVEGIYTPELLKFPFIPVSDASGIVVEIGSKVTKFKKGDRVTSHMFTKWLDGKPKSDEQSHALGATVDGGLSEYMVLNENAAVFSPETLTDNQSSTLPVAAFVNWFSLVEYGNIKAGDKVLVQGTGGVSIFAIQIASALGAEVIATSSSDEKLEKAKELGASKVINYKTHPDWEKEVQKLTNGKGVEHIVEVVGGSSIAKSIDALAFQGHIYVIGFLENMEANVNLFALLAKQARIQGVNLGHHRAFEDFNKALDQINIDPVIDTVYSFDQAKEAYEHQMKGAFGKIVIDFNEGHHHHHH | not soluble |
| MSLKEDFDLKTHIESSGHGVDTCLHVVLSSKVCRGYLVKMGGKIKSWKKRWFVFDRLKRTLSYYVDKHETKLKGVIYFQAIEEVYYDHLRSAAKKRFFRFTMVTESPNPALTFCVKTHDRLYYMVAPSAEAMRIWMDVIVTGAEGYTQFMNEGHHHHHH | not soluble |
| MSLKFAFIAKHRSIWPVAWLCEALGVSRSGFHAWFNRSPSEHARHDEVLLERIKQSFQSSDRTYGARRVWHDVLEEGLSCGLHRIERLMRLNALRARPRRRGFPKDAGDRPVVMPNVLDRQFVADRPNQKWVADFTYIWTAEGWLYVAAVIDLFSRRVVGWSMNANMTAQLVTDALIMAIWRRGKPDALLHHSDQGSQYTSEQFQRLMGDHGITCSMSRSGNVWDNAAMESFFSSLKTERTARKVYRTRNDARADVFDYIERFYNPKRRHSTLGYLSPDDFETKVGLAEGHHHHHH | not soluble |
| MSLKFTAIDFETANEKRNSPCSIGIVVVKDGHVVEKSHHLIRPKEMRFMPINIGIHGIRPAMVEKEPEFDKVWEKIKHYFDDTLVIAHNASFDISVLRKSAELYNIELPEFNYICTMKLARNFYKGIENAKLNTVNNFLGYEFRHHDALYDALACSNIMLSISKELKCKDITEISKLLGEGHHHHHH | not soluble |
